# ± gives the uncertainty stated by the source.
# Assay: amyloid nucleation score (Sup35N fusion, yeast selection) (log enrichment); library NNK2; higher = more nucleation; inactive = no reads after selection
# Method in brief: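 The nucleation score is a DiMSum log enrichment of output over input reads, centred on the mode score of non-aggregating sequences. Sequences under 100 input reads were excluded, and reads came from Illumina sequencing of plasmid inserts. Psi-negative yeast expressing Sup35N fused to peptides of 20 random codons were induced with 100 μM copper sulfate for 24 hours and grown 7 days at 30°C on medium lacking adenine and uracil. Random libraries had three technical output replicates.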
row,Substance,amyloid nucleation score
1,VGAMSIMKVLNFHDDILTVT,inactive
2,TRGIVGFPD,3.93 ± 0.067
3,WWCMLFNGEGGDCDILDFSS,-0.385 ± 0.49
4,DICNWHLYDNCLSICSGYR,0.951 ± 0.81
5,MFSSMSVLCKYILASWASHK,-0.58 ± 0.63
6,YCRHIAVECSVGLHWHGGTV,3.26 ± 0.15
7,SLMWDGANLYCMMVYSSVRN,0.182 ± 1.1
8,WSRADDRQWGPRLDNVVVMV,0.83 ± 0.45
9,LLNFMCIYYEWFQRSAEHAT,-0.605 ± 0.76
10,VFFGVQNKR,3.04 ± 0.095
11,CRAFVWQ,-0.889 ± 0.55
12,VRLCKYENSSWLSFRFQVQG,0.56 ± 0.39
13,QLCLLCFLYMC,3.16 ± 0.16
14,CVSADPFCPIEQFNVMILAL,-0.663 ± 0.42
15,GGDLNHHFAWTTNKMHDERR,4.537 ± 0.038
16,LLRILANQLKYYETTLCVGG,-0.27 ± 1.1
17,NSSRGQPHLSNFPIRHHHVN,0.461 ± 0.66
18,VIFLVDNCCMACDSLEPRTI,0.513 ± 0.25
19,QVAIPHHTRIETASARRVHT,1.09 ± 0.51
20,RAANYCGLKQAWSGFKRCVA,0.496 ± 0.36
21,SSRTMRFNVRG,0.722 ± 0.26
22,YAYAEWERNRWRRDDNLNVE,-0.251 ± 0.38
23,DQFWSENRIDYDNLAIRLQL,-1.1 ± 0.76
24,TFAIIQYRNCLVTPISFKHF,6.5 ± 0.081
25,FFFDDSKVYQNWEEDVEGNQ,-0.389 ± 0.34
26,SFVWRWRRSEFHQVMRGGWP,2.15 ± 0.23

row,Substance,amyloid nucleation score
1,SIAHGQTSQNSTEWARVDG,0.387 ± 0.29
2,KELLMAIASWSRLSGDIAVD,-0.86 ± 0.78
3,MSSINTRPRNDA,-0.645 ± 0.37
4,SDPHMHD,0.521 ± 0.25
5,AFSNSM,0.988 ± 0.52
6,VYTFK,0.667 ± 0.66
7,NDWFCVVY,-1.48 ± 0.42
8,DTKTIRFLYKRYRLSWQVSE,4.587 ± 0.04
9,ADPSDVFMVVVLGSCRAFTV,1.63 ± 0.47
10,SACIILI,1.65 ± 0.15
11,YVNPKVAWAGIDSAAEEDSD,0.047 ± 0.49
12,TMSFFLGSLEVL,-1.09 ± 0.48
13,GWWNHGSSMGYFERVSSTFW,inactive
14,PSVCKWCYMKCRRRTCFSQL,inactive
15,KNSWAAVPRSEEYCREVIGH,0.482 ± 0.56
16,VLWCGDLFAYLYMYVFSSNS,7.516 ± 0.051
17,SSVISLNILFFMGEPENSLL,6.424 ± 0.05
18,GNRFPRPSPQGIIYKLLLFR,2.92 ± 0.11
19,TVCWEWSSLWDTPSLKSAD,0.536 ± 0.37
20,WFAGFMCRVLACTFSALKLS,-0.917 ± 0.78
21,SCFLNMTLILDLVITGMMPR,-0.251 ± 0.32
22,YSGAYRLHYGFHIIICVCRW,3.21 ± 0.066
23,YCIKLRRYQNDKFWFNYTQV,4.35 ± 0.086
24,FRMSVKR,0.309 ± 0.33
25,VENLRNTIPKKEIGFSSVTG,-0.105 ± 0.3
26,TTILEL,-0.305 ± 0.79

row,Substance,amyloid nucleation score
1,SHNGHVLVPNRVVSITSCHR,0.147 ± 0.76
2,YLRTYLW,-0.208 ± 0.49
3,RLIGLVSRVEHVYIAVKRWE,0.543 ± 0.34
4,VYYLDSV,0.978 ± 0.74
5,RVEEWASFTTVIIMRMLNPG,0.94 ± 0.6
6,CHGRGISYQLLQNRNQQP,0.08 ± 0.79
7,YKTFFLVASAKVNEAPGQRG,inactive
8,VGEKCDL,-0.023 ± 0.55
9,HFRVYSWIQVK,0.337 ± 0.49
10,CFPPFLC,0.13 ± 1.1
11,ILSLMLRSVWRSVLLVLQ,inactive
12,IYDCDTTMVSNNMRYILVLH,-0.858 ± 0.33
13,LYMILNGYTLGSCFTVRDSF,4.99 ± 0.078
14,YWIRIRIQCFQGSIEQDTER,4.96 ± 0.066
15,GVQTFVMTPTCKRNWLQDGR,0.233 ± 0.27
16,NARVTGVF,inactive
17,IVQSSTAKHEDQVFGKKV,1.24 ± 0.61
18,CDSKVENIWVDLNEMYFFCN,2.54 ± 0.17
19,VGFISTMWHMYSELLGQINV,-0.499 ± 0.76
20,MNLWVMAFR,6.502 ± 0.065
21,CGVASSHFDGLLNR,2.58 ± 0.12
22,RSPMWLAGLMNIYSP,2.87 ± 0.084
23,RTYSMGGIR,-0.849 ± 1.1
24,FGYFYMKHLTPALMPYTGY,-0.441 ± 1.1
25,CRLRVDVGECDRGLYALRVW,1.21 ± 0.48
26,GFDLAWSWIPFSRWFALLVN,-0.486 ± 0.56

row,Substance,amyloid nucleation score
1,GFLFMVMRSQLRCVYINKY,1.61 ± 0.15
2,MSFKDNYQPK,-0.707 ± 0.76
3,CSVRSSAIYIRSCHHGWFYC,-1.19 ± 1.1
4,YSSTTITFYNWDRVTSRRLA,-0.832 ± 0.44
5,WGSGNGLVGLHYLASLFERN,0.847 ± 0.58
6,WQYFFGMYNPSGGRRPGISG,-0.373 ± 1
7,NTRGWDAGS,1.08 ± 0.28
8,YHCVEYLGARL,0.083 ± 0.63
9,DIIAPEKNFIIYY,inactive
10,VPDGHWSTHRRFSYMQVLNW,-0.441 ± 1.1
11,WLPKVWLRVRWFNEEKRDGG,-0.123 ± 0.54
12,SSYGIFVVGMLGSCRVQSRF,3.79 ± 0.041
13,VNWRLKHWLGEDDPLPVTSF,-0.267 ± 0.63
14,MIFCCTRK,8.708 ± 0.078
15,CLNWKYKNRELQVFNDSRVV,-2.77 ± 0.75
16,DIVQIWCWFRGC,10.25 ± 0.029
17,SFDLAVTECIALCFRCYQVF,-1.04 ± 0.39
18,ILVHVSFDNRFN,6.06 ± 0.077
19,ILTIALVRFSLSRWRLPWPY,1.36 ± 0.29
20,CQLFMQSSRCIRRRFATSAC,-0.295 ± 0.76
21,QWQGQHLT,-1.4 ± 1
22,LGYTSFYSFILKEGMFTAMG,0.434 ± 0.27
23,MFYPRSSFSWDFPTFGLSLP,inactive
24,FVYVIFQSNMGPYWRNRRLL,0.636 ± 0.81
25,SVMFMNSSFQRAT,-0.586 ± 0.42
26,RDAGSGREL,inactive

row,Substance,amyloid nucleation score
1,WVAKYLFSLEDHVSVRIVDI,0.227 ± 0.56
2,CEHDCSPTYDGLSYASFVRE,0.219 ± 0.5
3,CFTGFRVIMVNICEWCVVVS,3.9 ± 0.098
4,VCWYG,0.034 ± 0.3
5,FGFCGFMVHVGLVRDFLFC,0.257 ± 0.56
6,LMIVKMTMFDATGHVGFLMV,2.82 ± 0.071
7,NSVETLMNQRCWVCHTCCVK,-0.472 ± 0.64
8,VCFLQFYLSIFTTHTVSTYK,-0.547 ± 0.76
9,IYMRRCSVLGSHCH,0.081 ± 1.1
10,YSWSRVKFNSL,2.53 ± 0.076
11,QKGHSRLQPWSLSPYVYRPL,0.556 ± 0.42
12,ICGGTSESGRYRKAGQGV,1.07 ± 0.15
13,NCFYALYPSQDWRMTKLELS,-0.106 ± 0.23
14,DFYVSVPLRNCFSMSFIKWV,-0.766 ± 0.48
15,DRFRYICSYVENSDYLLRCL,inactive
16,LSVSDEVRQV,-0.466 ± 0.79
17,FEPWWCNSIMRLVVIEGEW,0.315 ± 0.46
18,GVVLNLDTWLVDEVPDGVRM,0.057 ± 0.76
19,CFVYLDLLYMEMMYHRQVAY,-0.552 ± 0.34
20,SITMELVYLPYQFMKSRRSW,4.35 ± 0.067
21,DDDNRNNLLWAMNADLGLRC,2.32 ± 0.091
22,FSGFVCWQADIFDDANIRLV,-0.707 ± 0.78
23,GSLMHEFAH,-0.698 ± 0.78

# Source: the supplement of paper PMC12042874
